This note sets out measurements from US20210324035A1 (University of California, published 2021).

For test [1], the target named is T1, NY-ESO-1 (CTAG1B) peptide on HLA-A*02:01 (human).
T1 peptide: SLLMWITQC
The test can be described thus: value cited from Robbins et al. 2008 (ref 37); not measured in this filing.

Test [2] concerns the target T2, HLA-A*02:01/NY-ESO-1 157-165 (…) (Homo sapiens; human). The test can be described thus: flow cytometry, A*02:01/NY157-165 dextramer staining of TCR-transduced human T cells from the blood of NSG mice. For orientation: In flow cytometry, cells or beads pass a laser one at a time.
Test [3] has as its target T2, HLA-A*02:01/NY-ESO-1 157-165 (…). The test can be described thus: flow cytometry, dextramer MFI on TCR-transduced Jurkat cells.
For test [4] the target is unchanged. As to the kind of experiment: flow cytometry, dextramer MFI on CD8+ Jurkat against Jurkat cells.
Test [5] addresses HLA-B*18:01/NY-ESO-1 88-96 (Homo sapiens; human). As to the kind of experiment: cell-based or functional assay.
The target of test [6] is T3, NY-ESO-1 (CTAG1B) peptide on HLA-B*18:01 (human).
T3 peptide: LEFYLAMPF
The test can be described thus: multimer staining.

Test [7] has as its target T2, HLA-A*02:01/NY-ESO-1 157-165 (…). The test can be described thus: cell-based or functional assay.
The target in test [8] is T1, NY-ESO-1 (CTAG1B) peptide on HLA-A*02:01. As to the kind of experiment: multimer staining.
For test [9], the target named is HLA-B*07:02/NY-ESO-1 60-72 (Homo sapiens; human). As to the kind of experiment: cell-based or functional assay.
In test [10] the target is T4, NY-ESO-1 (CTAG1B) peptide on HLA-B*07:02 (human).
T4 peptide: APRGPHGGAASGL
As to the kind of experiment: multimer staining.

In test [11] the target is T1, NY-ESO-1 (CTAG1B) peptide on HLA-A*02:01. The test can be described thus: cytokine release.
The target in test [12] is T4, NY-ESO-1 (CTAG1B) peptide on HLA-B*07:02. The test can be described thus: cytokine release.

What is called Kd is the equilibrium constant for the complex coming apart. Low values mean tighter binding, high ones weaker binding. Consider 1G4 TCR, for which the Kd in [1] amounted to 9.3 µM.

“1G4 TCR, murinized (murine TCR constant domains)” displayed a percent of transduced T cells dextramer+ in [2] of 90%. Also, the fold increase of the intensity of dextramer binding, muTCR over parental huTCR in test [3] was found to be 1.4 fold. Moreover, the fold increase of dextramer binding in the presence of CD8 in [4] amounted to 3.8 fold.

B1: 2B8 TCR, murinized (murine TCR constant domains) (TCR, V domains shown)
V domain 1: GQQVMQIPQYQHVQEGEDFTTYCNSSTTLSNIQWYKQRPGGHPVFLIQLVKSGEVKKQKRLTFQFGEAKKNSSLHITATQTTDVGTYFCADPNFGNEKLTFGTGTRLTIIP
V domain 2: EAQVTQNPRYLITVTGKKLTVTCSQNMNHEYMSWYRQDPGLGLRQIYYSMNVEVTDKGDVPEGYKVSRKEKRNFPLILESPSPNQTSLYFCASSLNPFATNEKLFFGSGTQLSVLE
Take B1: the “IL-2 production of TCR-transduced Jurkat cells co-incubated with cognate target cells; fold increase of murinized over fully human TCR” value in test [5] amounted to 18.6 fold.

B2: 2B8 TCR (TCR, V domains shown)
Valpha: GQQVMQIPQYQHVQEGEDFTTYCNSSTTLSNIQWYKQRPGGHPVFLIQLVKSGEVKKQKRLTFQFGEAKKNSSLHITATQTTDVGTYFCADPNFGNEKLTFGTGTRLTIIP
Vbeta: EAQVTQNPRYLITVTGKKLTVTCSQNMNHEYMSWYRQDPGLGLRQIYYSMNVEVTDKGDVPEGYKVSRKEKRNFPLILESPSPNQTSLYFCASSLNPFATNEKLFFGSGTQLSVL
Consider B2, for which the binding result in test [6] is “recognises”.

B3: 9D2 TCR, murinized (murine TCR constant domains) (TCR, V domains shown)
V domain 1: QKEVEQNSGPLSVPEGAIASLNCTYSDRGSQSFFWYRQYSGKSPELIMFIYSNGDKEDGRFTAQLNKASQYVSLLIRDSQPSDSATYLCAVDDKIIFGKGTRLHILP
V domain 2: DAGVIQSPRHEVTEMGQEVTLRCKPISGHDYLFWYRQTMMRGLELLIYFNNNVPIDDSGMPEDRFSAKMPNASFSTLKIQPSEPRDSAVYFCASSLGQPSTDTQYFGPGTRLTVLE
As for B3, the “IFN-γ secretion of TCR-transduced primary T cells co-incubated with peptide-pulsed A2+ K562 cells; functional sensitivity relative to 4A2” value in test [7] stood at 10 fold.

B4: 5G6 TCR (TCR, V domains shown)
Valpha: DAKTTQPNSMESNEEEPVHLPCNHSTISGTDYIHWYRQLPSQGPEYVIHGLTSNVNNRMASLAIAEDRKSSTLILHRATLRDAAVYYCILRTSGAGSYQLTFGKGTKLSVIP
Vbeta: SAVISQKPSRDICQRGTSLTIQCQVDSQVTMMFWYRQQPGQSLTLIATANQGSEATYESGFVIDKFPISRPNLTFSTLTVSNMSPEDSSIYLCSAGGAGASDTQYFGPGTRLTVL
On to B4, for which the binding result in [8] is “recognises”.

B5: 1E4 TCR, murinized (murine TCR constant domains) (TCR, V domains shown)
V domain 1: KQEVTQIPAALSVPEGENLVLNCSFTDSAIYNLQWFRQDPGKGLTSLLLIQSSQREQTSGRLNASLDKSSGRSTLYIAASQPGDSATYLCAVSTAYSGGGADGLTFGKGTHLIIQP
V domain 2: DTGVSQNPRHKITKRGQNVTFRCDPISEHNRLYWYRQTLGQGPEFLTYFQNEAQLEKSRLLSDRFSAERPKGSFSTLEIQRTEQGDSAMYLCASSPPTVRVYGYTFGSGTRLTVVE
As for B5, in [9], the “IL-2 production of TCR-transduced Jurkat cells co-incubated with cognate target cells; fold increase of murinized over fully human TCR” value was 1.6 fold.

B6: 1E4 TCR (TCR, V domains shown)
Valpha: KQEVTQIPAALSVPEGENLVLNCSFTDSAIYNLQWFRQDPGKGLTSLLLIQSSQREQTSGRLNASLDKSSGRSTLYIAASQPGDSATYLCAVSTAYSGGGADGLTFGKGTHLIIQP
Vbeta: DTGVSQNPRHKITKRGQNVTFRCDPISEHNRLYWYRQTLGQGPEFLTYFQNEAQLEKSRLLSDRFSAERPKGSFSTLEIQRTEQGDSAMYLCASSPPTVRVYGYTFGSGTRLTVV
As to B6, the binding result is “recognises” in test [10] and “no recognition” in test [11].

B7: 3A1 TCR, murinized (murine TCR constant domains) (TCR, V domains shown)
V domain 1: GQQLNQSPQSMFIQEGEDVSMNCTSSSIFNTWLWYKQDPGEGPVLLIALYKAGELTSNGRLTAQFGITRKDSFLNISASIPSDVGIYFCAGFLDSNYQLIWGAGTKLIIKP
V domain 2: EAQVTQNPRYLITVTGKKLTVTCSQNMNHEYMSWYRQDPGLGLRQIYYSMNVEVTDKGDVPEGYKVSRKEKRNFPLILESPSPNQTSLYFCASASGYRTDTQYFGPGTRLTVLE
notes: Full-length TCR on transduced Jurkat cells or primary human T cells; Human variable regions with mouse constant regions; also called 3A1 muTCR
For the molecule B7, the “fold increase of dextramer binding in the presence of CD8” value in test [4] was 1.9 fold.

B8: 3A1 TCR (TCR, V domains shown)
Valpha: GQQLNQSPQSMFIQEGEDVSMNCTSSSIFNTWLWYKQDPGEGPVLLIALYKAGELTSNGRLTAQFGITRKDSFLNISASIPSDVGIYFCAGFLDSNYQLIWGAGTKLIIKP
Vbeta: EAQVTQNPRYLITVTGKKLTVTCSQNMNHEYMSWYRQDPGLGLRQIYYSMNVEVTDKGDVPEGYKVSRKEKRNFPLILESPSPNQTSLYFCASASGYRTDTQYFGPGTRLTVL
As for B8, the binding result in [8] is on record as “recognises”; in test [12] it was “no recognition”.
